What was measured:
[1] = biological target: T1, HLA-A*0201 molecules on T2 cells (CEMX721.174.T2) (human); test: cell-based or functional assay
[2] = biological target: T1, HLA-A*0201 molecules on T2 cells …; test: cell-based or functional assay; remark: listed apart in the source
[3] = biological target: T1, HLA-A*0201 molecules on T2 cells …; test: functional competition assay

Binder | Competitor activity [mM] 50% [1] | Relative competitor activity to SEQ ID NO:2 [1] | Relative competitor activity (inhibition of CTL lysis of T2 cells given SEQ ID NO:4) [2] | fold reduction in peptide binding (against the base peptide SEQ ID NO:6) [3]
SLLMWIAQA [peptide SLLMWIAQA (SEQ ID NO:26)] | 0.0002 mM | 1350 relative to SEQ ID NO:2 |  | 
QLSLLMWIT [NY-ESO-1 155-163 peptide QLSLLMWIT (SEQ ID NO:3)] | 0.03 mM | 9 relative to SEQ ID NO:2 | 0.01 relative to FluMA 58-66 (SEQ ID NO:5) | 
ALLMWITQA [peptide ALLMWITQA (SEQ ID NO:20)] | 0.0013 mM | 208 relative to SEQ ID NO:2 |  | 
SLLMWITQL [NY-ESO-1 157-C165L peptide SLLMWITQL (SEQ ID NO:7)] | 0.002 mM | 130 relative to SEQ ID NO:2 | 0.5 relative to FluMA 58-66 (SEQ ID NO:5) | 
SLLMWITQS [peptide SLLMWITQS (SEQ ID NO:19)] | 0.02 mM | 13 relative to SEQ ID NO:2 |  | 
SLLMWATQA [peptide SLLMWATQA (SEQ ID NO:25)] | 0.01 mM | 27 relative to SEQ ID NO:2 |  | 
SLLMAITQA [peptide SLLMAITQA (SEQ ID NO:24)] | 0.004 mM | 68 relative to SEQ ID NO:2 |  | 
SALMWITQA [peptide SALMWITQA (SEQ ID NO:21)] | 0.01 mM | 27 relative to SEQ ID NO:2 |  | 100 fold
SLLAWITQA [peptide SLLAWITQA (SEQ ID NO:23)] | < 0.0001 mM | > 2700 relative to SEQ ID NO:2 |  | 
SLLMWITQV [NY-ESO-1 157-C165V peptide SLLMWITQV (SEQ ID NO:8)] | 6e-05 mM |  |  | 
SLLMWITAA [peptide SLLMWITAA (SEQ ID NO:27)] | 0.00018 mM | 1500 relative to SEQ ID NO:2 |  | 
SLAMWITQA [peptide SLAMWITQA (SEQ ID NO:22)] | 0.001 mM | 270 relative to SEQ ID NO:2 |  | 
SLLMWITQCFL [NY-ESO-1 157-167 peptide SLLMWITQCFL (SEQ ID NO:1)] | 0.02 mM | 13 relative to SEQ ID NO:2 | 0.04 relative to FluMA 58-66 (SEQ ID NO:5) | 

Source: patent EP1230261B1 (LUDWIG INSTITUTE FOR CANCER RESEARCH, dated 2008)
